Measurements taken from patent US20040009486A1, “Compositions and methods utilizing DNA polymerases” (priority 1999, published 2004).

What was measured:
primer:template = assay: Fidelity screen with rhodamine labeled non-complementary ddNTP; format: biochemical; conditions: R110-labeled incorrect ddNTP
Experimental: Reactions (10 μl) contained 1 unit of enzyme in 1× reaction buffer, 15 nM primer template, 25 nM of unlabeled complementary ddNTP, and 25, 100, 500, or 1000 nM of rhodamine labeled non-complementary ddNTP in four separate reactions. The reactions were incubated in a Perkin-Elmer 9600 for 25 cycles as follows: 96° C. for 10 s, 50° C. for 5 s, and 60° C. for 30 s. The reactions were then quenched with ice-cold 0.2 M EDTA (final concentration) and the products were purified from unincorporated rhodamine labeled ddNTPs and analyzed as described above.
Fidelity was determined as the tendency of a DNA polymerase to incorporate the correct nucleotide in the presence of increasing amounts of a non-complementary nucleotide. These assays employed constant amounts of primer:template, an unlabeled complementary ddNTP and DNA polymerase, and various concentrations of a rhodamine-labeled non-complementary ddNTP, as described in the Experimental Protocol. The amount of misextended primers is plotted against the ratio of rhodamine-labeled incorrect ddNTP/unlabeled correct ddNTP (FIG. 18 panels A and B). We performed similar assays for all possible mispairs (Table IX).
To address these concerns, the insertion fidelity of the JDF-3 P410L/A485T and Taq F667Y mutants was compared. In the first set of fidelity assays, a constant amount of primer:template, an unlabeled complementary ddNTP, and increasing concentrations of R110-labeled non-complementary ddNTP was used (Materials and Methods). […] The amount of misextended primers was determined and plotted against the ratio of R110-labeled incorrect ddNTP/unlabeled correct ddNTP (FIG. 27, panels A and B). Similar assays for all 12 possible mispairs was performed (ddG:dT, ddT:dG, ddT:dC, ddC:dT, ddC:dA, ddA:dC, ddA:dG, ddG:dA, ddT:dT, ddC:dC, ddA:dA, ddG:dG). […] The other mispairs are formed less frequently, and at similar rates for the JDF-3 P410L/A485T and Taq F667Y mutants (data not shown).
Fidelity assays using labeled ddNTPs (10 μl) contained 1 unit DNA polymerase in 1× reaction buffer, 15 nM primer: template, 25 nM of unlabeled complementary ddNTP, and 25, 100, 500, or 1000 nM of rhodamine-labeled non-complementary ddNTP in four separate reactions. The reactions were incubated in a Perkin-Elmer 9600 for 25 cycles as follows: 96° C. for 10 s, 50° C. for 5 s, and 60° C. for 30 s. The reactions were quenched and analyzed as above.

[1] = cited from earlier work
[2] = Gardner and Jack, 1999; cited from earlier work
[3] = Reha-Krantz et al., 1993; cited from earlier work
Activated DNA = assay: Polymerase specific activity on activated DNA (Table IV); format: biochemical
Experimental: (§1) Recombinant JDF-3 DNA polymerase was purified as described below (see “Purification of JDF-3” (method 1)). The biochemical properties of JDF-3 DNA polymerase have been compared to those of other commercially available archaeal DNA polymerases. […] JDF-3 DNA polymerase was therefore chosen for development of a DNA sequencing enzyme.
DNA polymerase activity was measured using purified JDF-3 polymerase mutants or heat-treated bacterial extracts prepared from various mutant clones. DNA polymerase activity was measured by monitoring the incorporation of ^3H-TTP into activated calf thymus DNA. A typical DNA polymerase reaction cocktail contained:
Incorporation was measured by adding 1 μl of polymerase samples to 10 μl aliquots of polymerase cocktail. DNA polymerase samples were diluted in a suitable storage buffer (e.g., 25 mM Tris-HCl (pH 7.5), 100 mM KCl, 0.1 mM EDTA, 1 mM DTT, 0.1% (v/v) Tween 20, 0.1% (v/v) Igepal 630, 10 μg/ml BSA, and 50% (v/v) glycerol). Polymerization reactions were conducted for 30 minutes at 72° C. Extension reactions were quenched on ice, and then 5 μl aliquots were spotted immediately onto DE81 ion-exchange filters (2.3 cm; Whatman #3658323). Unincorporated [^3H]TTP was removed by 6 washes with 2×SCC (0.3M NaCl, 30 mM sodium citrate, pH 7.0), followed by a brief wash with 100% ethanol. Incorporated radioactivity was measured by scintillation counting. […]

Primed M13 = assay: Polymerase specific activity on primed M13 (Table IV); format: biochemical
Description: as §1

DNA = assay: Polymerase constant for DNA (Table IV); format: biochemical; conditions: head names no parameter
Description: as §1

[4] = Polymerase constant for dNTP (Table IV); format: biochemical; conditions: head names no parameter
Description: as §1

[5] = 3′ to 5′ exonuclease activity, Kong et al. method, bacterial lysates; format: biochemical
Experimental: To analyze JDF-3 mutant proteins, the DNA sequence encoding JDF-3 DNA polymerase was PCR amplified using primers GGGAAACATATGATCCTTGACGTTGATTAC (where NdeI site in bold and start codon underlined) and GGGAAAGGATCCTCACTTCTTCTTCCCCTTC (where BamHI site shown in bold type). The PCR products were digested, purified, and ligated into a high expression level vector using standard methods. Plasmid clones were transformed into BL21(DE3). Recombinant bacterial clones were grown using standard procedures and JDF-3 polymerase mutants were expressed in the absence of induction. The exonuclease and polymerase activities of recombinant clones were assayed using bacterial lysates. Typically, crude extracts were heated at 70° C. for 15-30 minutes and then centrifuged to obtain a cleared lysate.
There are several methods of measuring 3′ to 5′ exonuclease activity known in the art, including that of Kong et al. (Kong et al., 1993, J. Biol. Chem. 268: 1965) and that of Southworth et al. (Southworth et al., 1996, Proc. Natl. Acad. Sci. U.S.A. 93: 5281), the full contents of both of which are hereby incorporated by reference. The exonuclease activity of wild type and active mutant polymerases as measured by the Kong et al. method were as follows: […]

Which results are given for “AmpliTaq FS: Taq F667Y mutant DNA polymerase (ABI / Perkin Elmer)”?
ddG:dT mispair formation frequency, higher than JDF-3 P410L/A485T (primer:template): 20 fold; ddT:dC mispair formation frequency, higher than JDF-3 P410L/A485T (primer:template): 3 fold

Which analog incorporation ([1]; Gardner and Jack, 1999) does the source give for “Y412F: VENT DNA polymerase site-directed mutant Y412F (Gardner and Jack, 1999)” here?
The analog incorporation was “no change in analog incorporation”.

Which “dideoxynucleotide incorporation relative to unmutated / wild type enzyme” value ([1]; literature values) does the source give for “Y412V: VENT DNA polymerase site-directed mutant Y412V (Gardner and Jack, 1999)” here?
The value was 2 fold.

And the “increase in incorporation of ribonucleotide ATP” value [2]?
The value was 200 fold.

B1: L412M: L412M bacteriophage T4 DNA polymerase mutant (Reha-Krantz et al., 1993) (protein, UniProt P04415 1-898, looked up, variant L412M)
DNA-directed DNA polymerase: MKEFYISIETVGNNIVERYIDENGKERTREVEYLPTMFRHCKEESKYKDIYGKNCAPQKFPSMKDARDWMKRMEDIGLEALGMNDFKLAYISDTYGSEIVYDRKFVRVANCDIEVTGDKFPDPMKAEYEIDAITHYDSIDDRFYVFDLLNSMYGSVSKWDAKLAAKLDCEGGDEVPQEILDRVIYMPFDNERDMLMEYINLWEQKRPAIFTGWNIEGFDVPYIMNRVKMILGERSMKRFSPIGRVKSKLIQNMYGSKEIYSIDGVSILDYLDLYKKFAFTNLPSFSLESVAQHETKKGKLPYDGPINKLRETNHQRYISYNIIDVESVQAIDKIRGFIDLVLSMSYYAKMPFSGVMSPIKTWDAIIFNSLKGEHKVIPQQGSHVKQSFPGAFVFEPKPIARRYIMSFDLTSMYPSIIRQVNISPETIRGQFKVHPIHEYIAGTAPKPSDEYSCSPNGWMYDKHQEGIIPKEIAKVFFQRKDWKKKMFAEEMNAEAIKKIIMKGAGSCSTKPEVERYVKFSDDFLNELSNYTESVLNSLIEECEKAATLANTNQLNRKILINSLYGALGNIHFRYYDLRNATAITIFGQVGIQWIARKINEYLNKVCGTNDEDFIAAGDTDSVYVCVDKVIEKVGLDRFKEQNDLVEFMNQFGKKKMEPMIDVAYRELCDYMNNREHLMHMDREAISCPPLGSKGVGGFWKAKKRYALNVYDMEDKRFAEPHLKIMGMETQQSSTPKAVQEALEESIRRILQEGEESVQEYYKNFEKEYRQLDYKVIAEVKTANDIAKYDDKGWPGFKCPFHIRGVLTYRRAVSGLGVAPILDGNKVMVLPLREGNPFGDKCIAWPSGTELPKEIRSDVLSWIDHSTLFQKSFVKPLAGMCESAGMDYEEKASLDFLFG
For B1, which “ddGTP needed for inhibition, less than wild-type polymerase” value [3] is on record?
The value was 50 fold.

B2: JDF-3: Recombinant wild-type Thermococcus species JDF-3 Family B DNA polymerase (SEQ ID NO: 2) (protein)
chain: MILDVDYITENGKPVIRVFKKENGEFRIEYDREFEPYFYALLRDDSAIEEIKKITAERHGRVVKVKRAEKVKKKFLGRSVEVWVLYFTHPQDVPAIRDKIRKHPAVIDIYEYDIPFAKRYLIDKGLIPMEGEEELKLMSFDIETLYHEGEEFGTGPILMISYADESEARVITWKKIDLPYVEVVSTEKEMIKRFLRVVKEKDPDVLITYNGDNFDFAYLKKRCEKLGVSFTLGRDGSEPKIQRMGDRFAVEVKGRVHFDLYPVIRRTINLPTYTLEAVYEAVFGKPKEKVYAEEIATAWETGEGLERVARYSMEDARVTYELGREFFPMEAQLSRLIGQGLWDVSRSSTGNLVEWFLLRKAYERNELAPNKPDERELARRRGGYAGGYVKEPERGLWDNIVYLDFRSLYPSIIITHNVSPDTLNREGCRSYDVAPEVGHKFCKDFPGFIPSLLGNLLEERQKIKRKMKATLDPLEKNLLDYRQRAIKILANSYYGYYGYARARWYCRECAESVTAWGREYIEMVIRELEEKFGFKVLYADTDGLHATIPGADAETVKKKAMEFLNYINPKLPGLLELEYEGFYVRGFFVTKKKYAVIDEEGKITTRGLEIVRRDWSEIAKETQARVLEAILRHGDVEEAVRIVREVTEKLSKYEVPPEKLVIHEQITRELKDYKATGPHVAIAKRLAARGVKIRPGTVISYIVLKGSGRIGDRAIPFDEFDPTKHKYDADYYIENQVLPAVERILRAFGYRKEDLRYQKTRQVGLGAWLKPKGKKK
modifications: Thermococcus sp. JDF-3
Which “Specific Activity (U/mg) × 10^4 Activated DNA” value (Activated DNA) does the source give for B2 here?
Its value is 1.2 ± .07 (U/mg) × 10^4.

And the “Specific Activity (U/mg) × 10^4 Primed M13” value (Primed M13)?
Its value is 5.2 (U/mg) × 10^4.

And the “DNA” value (DNA)?
The value was 2.0 nM.

And the “dNTP (μM each)” value [4]?
The value was 16 ± 2 μM each.

What about the “Exo activity (U/mg)” value [5] of the same molecule?
The value was 915 U/mg.

B3: Pfu: Family B DNA polymerase from Pyrococcus furiosus (protein, UniProt P61875 1-775, looked up)
DNA polymerase: MILDVDYITEEGKPVIRLFKKENGKFKIEHDRTFRPYIYALLRDDSKIEEVKKITGERHGKIVRIVDVEKVEKKFLGKPITVWKLYLEHPQDVPTIREKVREHPAVVDIFEYDIPFAKRYLIDKGLIPMEGEEELKILAFDIETLYHEGEEFGKGPIIMISYADENEAKVITWKNIDLPYVEVVSSEREMIKRFLRIIREKDPDIIVTYNGDSFDFPYLAKRAEKLGIKLTIGRDGSEPKMQRIGDMTAVEVKGRIHFDLYHVITRTINLPTYTLEAVYEAIFGKPKEKVYADEIAKAWESGENLERVAKYSMEDAKATYELGKEFLPMEIQLSRLVGQPLWDVSRSSTGNLVEWFLLRKAYERNEVAPNKPSEEEYQRRLRESYTGGFVKEPEKGLWENIVYLDFRALYPSIIITHNVSPDTLNLEGCKNYDIAPQVGHKFCKDIPGFIPSLLGHLLEERQKIKTKMKETQDPIEKILLDYRQKAIKLLANSFYGYYGYAKARWYCKECAESVTAWGRKYIELVWKELEEKFGFKVLYIDTDGLYATIPGGESEEIKKKALEFVKYINSKLPGLLELEYEGFYKRGFFVTKKRYAVIDEEGKVITRGLEIVRRDWSEIAKETQARVLETILKHGDVEEAVRIVKEVIQKLANYEIPPEKLAIYEQITRPLHEYKAIGPHVAVAKKLAAKGVKIKPGMVIGYIVLRGDGPISNRAILAEEYDPKKHKYDAEYYIENQVLPAVLRILEGFGYRKEDLRYQKTRQVGLTSWLNIKKS
With B3 as the molecule, how does the “Specific Activity (U/mg) × 10^4 Primed M13” value (Primed M13) read?
The value was 2.0 ± .02 (U/mg) × 10^4.

What about the “DNA” value (DNA) of the same molecule?
The value was 0.7 nM.

What about the “dNTP (μM each)” value [4] of the same molecule?
Its value is 16 ± 2 μM each.
